In paper doi:10.1101/2023.08.24.554544 (2023):

How the values were obtained:
[1] = molecular target: V-shape-GSGS-C-ter peptide (fused V-shape and C-ter peptide of SAP05, linked by the GSGS linker) (UniProt Q2NK94); assay: SPR
[2] = molecular target: T1, aster yellows witches'-broom phytoplasma SAP05 (AYWB_SAP05), mature, 33-135 (Aster Yellows phytoplasma strain …, UniProt Q2NK94 33-135); assay: SPR
T1 chain: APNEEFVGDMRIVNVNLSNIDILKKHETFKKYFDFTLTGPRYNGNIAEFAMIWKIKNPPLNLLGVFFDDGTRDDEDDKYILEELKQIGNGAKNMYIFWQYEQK

Row | Binder | koff [1] [s⁻¹] | Kd [2] [µM]
1 | GST-tagged A. thaliana Rpn10 (AtRpn10) vWA domain (domain or fragment) VLEATMICIDNSEWMRNGDYSPSRLQAQTEAVNLLCGAKTQSNPENTVGILTMAGKGVRVLTTPTSDLGKILACMHGLDVGGEINLTAAIQIAQLALKHRQNKNQRQRIIVFAGSPIKYEKKALEIVGKRLKKNSVSLDIVNFGEDDDEEKPQKLEALLTAVNNNDGSHIVHVPSGANALSDVLLSTPVFTG | 0.0115 | 
2 | GST-tagged homo sapiens Rpn10 (hRpn10) vWA (1-193aa) (domain or fragment) MVLESTMVCVDNSEYMRNGDFLPTRLQAQQDAVNIVCHSKTRSNPENNVGLITLANDCEVLTTLTPDTGRILSKLHTVQPKGKITFCTGIRVAHLALKHRQGKNHKMRIIAFVGSPVEDNEKDLVKLAKRLKKEKVNVDIINFGEEEVNTEKLTAFVNTLNGKDGTGSHLVTVPPGPSLADALISSPILAGEG |  | ~149
